Laboratory results taken from patent publication US20250304658A1.
Substitutions are numbered along the chain they refer to. Several values for one entry are separate records, joined by “and”; a condition that tells them apart may be missing. Equal values may be shown once.

B1: 2B9 (antibody, V domains shown)
VH: EVQLLESGGGLAQPGKSLRLSCAASGFTFSGFAMSWVRQAPGKGLEWVSGISGSGDITYYADSVKGRFTISRDNSKSTLYLQMNSLGAEDTAVYYCAKDPYNWNHGVYGMDVWGQGTTVTVSS
VL: DIQMTQSPSSLSASVGDRVTITCRASQSISSYLNWYQQKPGKAPKFLIYGASSLQSGVPSRFSGSGSGTDFTLTISSLQPEDFAAYYCQQSFNAPLTFGGGTKVEIK
B2: 6H12 (antibody, V domains shown)
VH: EVQLVESGGGLVQPGGSLRLSCAASGFTFSSYEMNWVRQAPGKGLEWVSYISSGGSSIKYADSVRGRFAFSRDNAENSVHLQMNSLRAEDTAVYYCARVGGSYYYSYAMDVWGQGTAVTVSS
VL: DIQLTQSPSFLSASVGDRVTITCWASQDISSYLAWYQQKPGKAPKLLIYAASTLQSGVPSRFTGSGSGTEFTLTISSLQPEDFATYYCQQPHNSPFSFGPGTKVDVK
B3: 9G9 (antibody, V domains shown)
VH: EVQLLESGGGLVQPGGSLRLSCAASGFTFHNYAMSWVRQAPGKGLEWVSGISGSGGTAYYADSVKGRFTISRDNSKNTLYLQMNSLRADDTALYYCAKDRFLEWVEGFDSWGQGTLVTVSS
VL: B1 VL with S30G, Y32F, N34I, F46L, G50A, T74I, A85T, F92Y, A94T
B4: 15C10 (antibody, V domains shown)
VH: EVQLLESGGGLVQPGGSLRLSCAASGFTFSSFAMSWVRQAPGKGLEWVSGISASGGTTNYADSVKGRFTISRDNSKNTLYLQMSSLRAEDTAEYYCAKDRFLEWVEGFDPWGQGILVTVSP
VL: DIQMTQSPSSLSASVGDRVTITCRASQSIGRFLIWYQQKPGKAPKLLLYATSSLQSGVPARFTGSGSGTDFTLTIGSLQPEDFATYYCQQSYITPLTFGGGTKVEIK
B5: 7A4 (antibody, V domains shown)
VH: QVQLVESGGDLVKPGGSLRLSCVASGFTFSDYYMNWIRLPPGKGLEWISYIDSSAGAIYYADSVKGRFTVSRDDAKNSLFLHMNSLRADDTAVYYCVRERRDGHKIFDYWGPGTLVTVSS
VL: DIVMTQSPDSLAVSLGERATINCKSSQNILYSSNNKNYLAWYQQKAGQPPKLLIFWSSIRESGVPDRFSGSGSGTDFTLTISSLQAEDVAVYYCQQYYSSPYNFGRGTTLEIK
B6: 2H1 (antibody, V domains shown)
VH: B5 VH with V97A, Y109C
VL: B5 VL with A46T, I59T
B7: 7H8 (antibody, V domains shown)
VH: EVQLLESGGGLVQPGGSLRLSCAASGFAFHTYDMTWVRQAPGKGLEWVSGVVGSGINTYYADSVKGRFTISRDNSKSTLYLQMNSLRAEDTAVYYCAKDSSSWFSLHYWGQGTLVTVSS
VL: DIQMTQSPSTLSASVGDRVTITCRASQSISNWLAWYQQKPGKAPKLLIYKASSLESGVPSRFSGSGSGTDFTLTISSLQPDDFASYYCQQYRSYAYTFGQGTKLEIT
B8: 8D10 (antibody, V domains shown)
VH: B5 VH with Q3H, L79M, V97A
VL: B5 VL with I59T
B9: 9B4 (antibody, V domains shown)
VH: B5 VH with V97A, D102E, Y109F
VL: B5 VL with V13L, W41C, I59T
B10: 4F7 (antibody, V domains shown)
VH: B5 VH with S85N, V97A, Y109C
VL: B5 VL with I59T
B11: 2F7 (antibody, V domains shown)
VH: B5 VH with D10G, K43R, E46Q, F80Y, H82Q, V97A, Y109W, P112Q
VL: B5 VL with S32T, A40G, F55Y, I59T, E61N, Q95H, N103T, R106Q, T109N
B12: 8A11 (antibody, V domains shown)
VH: B5 VH with I58T, D89E, V97A, D102S, Y109C
VL: B5 VL with I59T
B13: 5A8 (antibody, V domains shown)
VH: B5 VH with K43R, N77K, H82Y, V97A
VL: B5 VL with I59T, Q95H
B14: 1E2 (antibody, V domains shown)
VH: B5 VH with I48V, K65R, V97A, Y109C
VL: B5 VL with I59T, S82N
B15: 1H10 (antibody, V domains shown)
VH: B5 VH with Q3H, L39M, S85N, V97A, Y109C
VL: B5 VL with I59T
B16: 14F5 (antibody, V domains shown)
VH: B4 VH with A24V
VL: B4 VL
B17: 11D12 (antibody, V domains shown)
VH: B2 VH with A69T, H80F, A88G
VL: B2 VL with T63S, H92N, S94Y

Target: BK virus VP1 protein, genotype I (BK virus) (UniProt P03088)
Assay: cell-based or functional assay

Binder	EC50, pseudovirus neutralization	EC50, pseudovirus neutralization (mAb mixed with irrelevant isotype matched mAb M2)
B1	4.2 pM	
B2		0.96 pM
B3		2.76 pM
B4	0.1 pM	

Target: BK virus VP1 protein, genotype I (BK virus) (UniProt P03088)
Assay: cell-based or functional assay
Remark: another data set of the same source

Binder	EC50, pseudovirus neutralization	EC50, pseudovirus neutralization (mAb mixed with irrelevant isotype matched mAb M2)
B1	32.2 pM	2.77 pM
B2	3.9 pM	
B3	4.7 pM	
B4	9.4 pM	
B5	9.1 pM	
B6	20.2 pM and 41.8 pM	
B7	59.6 pM	
B8	62.9 pM	
B9	72.5 pM	
B10	32.5 pM	
B11	52.5 pM	
B12	108 pM	
B13	20.1 pM	
B14	59 pM	
B15	68.4 pM	
B16	10.1 pM	
B17	10.9 pM	
